Assay results reported in patent US20230295310A1 (ABCELLERA BIOLOGICS, published 2023).
Substitutions are numbered along the chain they refer to.

B1: GOMP001_bsAb_051 (bispecific antibody, human IgG1, kappa, L234A L235A)
heavy 1: QVQLVQSGAEVKKPGASVKVSCKASGYTFTSHWMHWVRKAPGQGLEWIGEFNPSNGRTNYNEEFKSKATMTVDTSTNTAYMELSSLRSEDTAVYYCASRDYDYDGRYFDYWGQGTLVTVSSASTKGPSVFPLAPSSKSTSGGTAALGCLVADYFPEPVTVSWNSGALTSGVHTFPAVLQSSGLYSLSSVVTVPSSSLGTQTYICNVNHKPSNTKVDEKVEPKSCDKTHTCPPCPAPEAAGGPSVFLFPPKPKDTLMISRTPEVTCVVVDVSHEDPEVKFNWYVDGVEVHNAKTKPREEQYNSTYRVVSVLTVLHQDWLNGKEYKCKVSNKALPAPIEKTISKAKGQPREPQVYTLPPSREEMTDNQVSLTCLVKGFYPSDIAVEWESNGQPENNYKTTPPVLMSDGSFFLASKLTVDKSRWQQGNVFSCSVMHEALHNHYTQKSLSLSPG
light 1: RIQMTQSPSSLSASVGDRVTITCSASSSVTYMYWYQDKPGKAPKLLIYDTSNLASGVPSRFSGSGSGTDYTFTISSLQPEDIATYYCQQWSSHIFTFGQGTKVEIKRTVAAPSVFIFPPSDKQLKSGTARVVCLLNNFYPREAKVQWKVDNALQSGNSQESVTEQDSKDSTYSLSSTLTLSKADYEKHKVYACEVTHQGLSSPVTKSFNRGEC
heavy 2: LRSDDTAVYYCARGVRGNYYYYYMDVWGRGTTVTVSSASTKGPSVFPLAPSSKSTSGGTAALGCLVKDYFPEPVTVSWNSGALTSGVHTFPAVLQSSGLYSLSSVVTVPSSSLGTQTYICNVNHKPSNTKVDKKVEPKSCDKTHTCPPCPAPEAAGGPSVFLFPPKPKDTLMISRTPEVTCVVVDVSHEDPEVKFNWYVDGVEVHNAKTKPREEQYNSTYRVVSVLTVLHQDWLNGKEYKCKVSNKALPAPIEKTISKAKGQPRRPRVYTLPPSREEMTKNQVSLVCLVKGFYPSDIAVEWESNGQPENNYKTTPPVLDSDGSFFLYSVLTVDKSRWQQGNVFSCSVMHEALHNHYTQKSLSLSPG
light 2: EIVLTQSPDFQSVTPKEKVTITCRASQSIGSKLHWYQRKPDDSPKLLIKYASQSFSGVPSRFSGSGSGTDFNLTINSLEAEDAATFYCHQSSGLPYTFGQGTKLEIKRTVAAPSVFIFPPSDEQLKSGTASVVCLLNNFYPREAKVQWKVDNALQSGNSQESVTEQDSKDSTYSLSSTLTLSKADYEKHKVYACEVTHQGLSSPVTKSFNRGEC
B2: GOMP001_bsAb_055 (bispecific antibody, human IgG1, kappa, L234A L235A)
heavy 1: B1 heavy 1
light 1: B1 light 1
heavy 2: EVNLVESGGGLVQPGRSLRLSCAASGFTFDDYTMHWVRYVPGKGLEWVSNISWNSGSLGYADRVKGRFTISRDNAKDSLYLQMNSLRVEDTALYYCAKDSSGYGHYNSYYMDVWGRGTTVTVSSASTKGPSVFPLAPSSKSTSGGTAALGCLVKDYFPEPVTVSWNSGALTSGVHTFPAVLQSSGLYSLSSVVTVPSSSLGTQTYICNVNHKPSNTKVDKKVEPKSCDKTHTCPPCPAPEAAGGPSVFLFPPKPKDTLMISRTPEVTCVVVDVSHEDPEVKFNWYVDGVEVHNAKTKPREEQYNSTYRVVSVLTVLHQDWLNGKEYKCKVSNKALPAPIEKTISKAKGQPRRPRVYTLPPSREEMTKNQVSLVCLVKGFYPSDIAVEWESNGQPENNYKTTPPVLDSDGSFFLYSVLTVDKSRWQQGNVFSCSVMHEALHNHYTQKSLSLSPG
light 2: DIQMTQSPSSLSASVGDRVTITCRASQSIRNYLNWYQRKPGDAPKVLIYSASSLQSGVPSRFSGSGSGTDFTLTISSLQPEDFASFYCQQTYSTPITFGQGTRLEIKRTVAAPSVFIFPPSDEQLKSGTASVVCLLNNFYPREAKVQWKVDNALQSGNSQESVTEQDSKDSTYSLSSTLTLSKADYEKHKVYACEVTHQGLSSPVTKSFNRGEC
B3: GOMP001_bsAb_056 (bispecific antibody, human IgG1, kappa, L234A L235A)
heavy 1: B2 heavy 2
light 1: B2 light 2
heavy 2: QVQLVQSGAEVKKPGASVKVSCKASGYTFTSHWMHWVRYAPGQGLEWIGEFNPSNGRTNYNEKFKSKATMTVDTSTNTAYMELSSLRSEDTAVYYCASRDYDYDGRYFDYWGRGTLVTVSSASTKGPSVFPLAPSSKSTSGGTAALGCLVKDYFPEPVTVSWNSGALTSGVHTFPAVLQSSGLYSLSSVVTVPSSSLGTQTYICNVNHKPSNTKVDKKVEPKSCDKTHTCPPCPAPEAAGGPSVFLFPPKPKDTLMISRTPEVTCVVVDVSHEDPEVKFNWYVDGVEVHNAKTKPREEQYNSTYRVVSVLTVLHQDWLNGKEYKCKVSNKALPAPIEKTISKAKGQPRRPRVYTLPPSREEMTKNQVSLVCLVKGFYPSDIAVEWESNGQPENNYKTTPPVLDSDGSFFLYSVLTVDKSRWQQGNVFSCSVMHEALHNHYTQKSLSLSPG
light 2: B1 light 1 with R1D, D37R, K41D, K122E, R130S
B4: GOMP001_bsAb_011 (bispecific antibody, human IgG1, kappa, L234A L235A)
heavy 1: B1 heavy 1
light 1: B1 light 1
heavy 2: EVQLVESGGGLVQPGGSLRLSCAASGFTLSSYTMNWVRYAPGKGLEWVSYISSSSRTIYYSDRVKGRFSISRDNAKNSLYLQMNSLRDEDTALYYCAREDYYDSSGFDNWGRGTLVTVSSASTKGPSVFPLAPSSKSTSGGTAALGCLVKDYFPEPVTVSWNSGALTSGVHTFPAVLQSSGLYSLSSVVTVPSSSLGTQTYICNVNHKPSNTKVDKKVEPKSCDKTHTCPPCPAPEAAGGPSVFLFPPKPKDTLMISRTPEVTCVVVDVSHEDPEVKFNWYVDGVEVHNAKTKPREEQYNSTYRVVSVLTVLHQDWLNGKEYKCKVSNKALPAPIEKTISKAKGQPRRPRVYTLPPSREEMTKNQVSLVCLVKGFYPSDIAVEWESNGQPENNYKTTPPVLDSDGSFFLYSVLTVDKSRWQQGNVFSCSVMHEALHNHYTQKSLSLSPG
light 2: DIRMTQSPSSFSASTGDRVTITCRASQGISSYLAWYQRKPGDAPKLLIYTASTLQSGVPSRFSGSGSGTDFTLTIRSLQSEDFATYYCQQYYSYPRTFGQGTKVEIKRTVAAPSVFIFPPSDEQLKSGTASVVCLLNNFYPREAKVQWKVDNALQSGNSQESVTEQDSKDSTYSLSSTLTLSKADYEKHKVYACEVTHQGLSSPVTKSFNRGEC

Columns and labels:
[1] = target: human EGFR, C-terminal eGFP-tagged, on CHO-K1 cells (human, UniProt P00533 25-1210); experiment: cell-based or functional assay
EGFR on HeLa cells = EGFR on HeLa cells (UniProt P00533 25-1210, limits assumed); experiment: cell-based or functional assay

Binder | EC50 CHO-K1 EGFR Low (nM); T cell activation bioassay, luciferase [1] [nM] | EC50 CHO-K1 EGFR Med (nM); T cell activation bioassay, luciferase [1] [nM] | Max killing % (EGFR on HeLa cells) [%] | X… HeLa EC50 (EGFR on HeLa cells) [pM]
B1 | 1.23 | 0.0922 |  | 
B2 | 0.119 | 0.0139 |  | 
B3 | 0.0291 | 0.00412 |  | 
B4 |  |  | 77.8 | 69.3
